Measurements from US20240255509A1, “COMPOSITIONS AND METHODS RELATED TO K180 DIMETHYLATED H1.0 PROTEIN” (Aelan Cell Technologies, Inc., priority 2016, published 2024).

Key:
Type in all cases: biochemical
[1] = target: T1, H1.0 peptide (Homo sapiens, UniProt P07305); test: Radiolabel in vitro methylation assay with G9A; details: 10 U G9A, 37° C. 1 hour, autoradiography
T1 construct: purchased ThermoFisher Scientific (peptide); NEB (G9A) M0235S (G9A)
Experimental: In order to visualize methylation of H1.0 peptide by G9A methyltransferase in vitro, a methylation assay was performed incorporating a radiolabelled methyl donor, which allows for visualization of methylated peptide on a gel after autoradiography exposure. The following methylation reaction was set up in a 1.5 ml tube: 1×HMT reaction buffer (50 mM Tris-HCl, 5 mM MgCl2, 4 mM dithiothreitol, pH 9.0), 10 U G9A Methyltransferase (NEB, M0235S, Lot #0031201), 3.2 mM Adenosyl-L-Methionine, S-[Methyl-3H] (Perkin Elmer, NET155H, Lot #1664720), 10 μg H1.0 peptide (ThermoFisher Scientific, Biotin-[…] (SEQ ID NO:75)), final volume 10 μl. A control reaction as above but without H1.0 peptide was also created. Reactions were incubated in a thermocycler at 37° C. for 1 hour. Reactions were stopped by incubating on ice for 5 minutes, and subsequently resolved on a 16.5% Tricine gel (BioRad, 4563063). Gels were soaked in 30% methanol, 5% glycerol for 30 minutes before vacuum drying at RT for 24 hours. Autoradiography analysis of dried gels with a phosphorimager (Molecular Dynamics) was then performed to assess effective methylation of H1.0 peptide with methyl-3H groups by the G9A methyltransferase.
The methylation reaction was subsequently resolved on a gel and visualized via autoradiography. […] A control reaction lacking H1.0 peptide yielded no tritium-labeled products.

[2] = target: T2, unmodified H1.0 peptide ([…] (SEQ ID NO:42)) (Homo sapiens, UniProt P07305); test: In vitro methylation with G9A, products identified by LC-MS
T2 construct: purchased ThermoFisher Scientific (peptide); NEB (G9A) M0235S (G9A)
Experimental: (§1) In order to identify the precise sites of methylation by G9A and GLP methyltransferases on histone H1.0, in vitro methylation assays were performed and subsequently analyzed by Liquid Chromatography and High-resolution Mass Spectrometry (LC-MS) analysis. Methylation reactions were set up using either G9A methyltransferase (NEB, M0235S, Lot #0031201) or GLP methyltransferase (Cayman Chemical, 10755). The methyl donor in each reaction was unlabeled S-Adenosyl-L-Methionine (NEB, B9003S). […]
(§2) For the Liquid Chromatography and High-resolution Mass Spectrometry (LC-MS) analysis, samples were prepared as described above and about 1 μg o the product was injected onto a Thermo Scientific Easy nLC system configured with a 10 cm×100 um trap column and a 25 cm×100 um ID resolving column. […] This ensured optimal full-scan data for quantification. […]
(§3) Protein identification was performed using Thermo Scientific Proteome Discoverer version 1.4 (including Sequest and Percolator algorithms) using RefSeqHuman sequence database. […] Protein quantification was performed using Pinpoint version 1.4 software. The Pinpoint quantification workflow included importing the Proteome Discoverer .msf files as spectral libraries. Identified peptides were subsequently quantified in MS .raw files using the Pinpoint peak finding, chromatographic alignment and area calculation algorithms. […]

[3] = target: T3, K180me2 peptide (H1.0 AA 165-182) (Homo sapiens, UniProt P07305); test: as above; details: K180me2 peptide as substrate
T3 construct: the K180me2 peptide (H1.0 AA 165-182) was used as a substrate; purchased ThermoFisher Scientific (peptide); NEB (G9A) M0235S (G9A)
Experimental: In order to identify the precise sites of methylation by G9A and GLP methyltransferases on histone H1.0, in vitro methylation assays were performed and subsequently analyzed by Liquid Chromatography and High-resolution Mass Spectrometry (LC-MS) analysis. Methylation reactions were set up using either G9A methyltransferase (NEB, M0235S, Lot #0031201) or GLP methyltransferase (Cayman Chemical, 10755). The methyl donor in each reaction was unlabeled S-Adenosyl-L-Methionine (NEB, B9003S). The H1.0 substrate in each reaction was either unmodified H1.0 peptide labeled with biotin (ThermoFisher Scientific, Biotin-[…] (SEQ ID NO:75)), di-methylated H1.0 peptide (ThermoFisher Scientific, Biotin-[…]^(me2)PK (SEQ ID NO:76)), or full-length recombinant human H1.0 (NEB, M2501S). Methylation reactions were set up in triplicate for each condition as follows: 1×HMT reaction buffer (50 mM Tris-HCl, 5 mM MgCl2, 4 mM dithiothreitol, pH 9.0); 10 U G9A or GLP Methyltransferase; 3.2 mM S-Adenosyl-L-Methionine; 500 ng unmodified or modified H1.0 peptide, or 1 μg full-length protein; final volume 10 μl. As controls, reactions were set up as above but without any methyltransferase present. […]
as §2, §3

[4] = target: T4, recombinant human H1.0 protein (Homo sapiens, UniProt P07305); test: as above; details: 1 μg full-length protein
T4 construct: full-length recombinant human H1.0 (NEB, M2501S); purchased NEB M2501S (H1.0); M0235S (G9A)
Experimental: as §1, §2, §3

B1: G9A: recombinant G9A methyltransferase (NEB, M0235S) (protein, UniProt Q96KQ7 2-1210, looked up)
Histone-lysine …: AAAAGAAAAAAAEGEAPAEMGALLLEKETRGATERVHGSLGDTPRSEETLPKATPDSLEPAGPSSPASVTVTVGDEGADTPVGATPLIGDESENLEGDGDLRGGRILLGHATKSFPSSPSKGGSCPSRAKMSMTGAGKSPPSVQSLAMRLLSMPGAQGAAAAGSEPPPATTSPEGQPKVHRARKTMSKPGNGQPPVPEKRPPEIQHFRMSDDVHSLGKVTSDLAKRRKLNSGGGLSEELGSARRSGEVTLTKGDPGSLEEWETVVGDDFSLYYDSYSVDERVDSDSKSEVEALTEQLSEEEEEEEEEEEEEEEEEEEEEEEEDEESGNQSDRSGSSGRRKAKKKWRKDSPWVKPSRKRRKREPPRAKEPRGVNGVGSSGPSEYMEVPLGSLELPSEGTLSPNHAGVSNDTSSLETERGFEELPLCSCRMEAPKIDRISERAGHKCMATESVDGELSGCNAAILKRETMRPSSRVALMVLCETHRARMVKHHCCPGCGYFCTAGTFLECHPDFRVAHRFHKACVSQLNGMVFCPHCGEDASEAQEVTIPRGDGVTPPAGTAAPAPPPLSQDVPGRADTSQPSARMRGHGEPRRPPCDPLADTIDSSGPSLTLPNGGCLSAVGLPLGPGREALEKALVIQESERRKKLRFHPRQLYLSVKQGELQKVILMLLDNLDPNFQSDQQSKRTPLHAAAQKGSVEICHVLLQAGANINAVDKQQRTPLMEAVVNNHLEVARYMVQRGGCVYSKEEDGSTCLHHAAKIGNLEMVSLLLSTGQVDVNAQDSGGWTPIIWAAEHKHIEVIRMLLTRGADVTLTDNEENICLHWASFTGSAAIAEVLLNARCDLHAVNYHGDTPLHIAARESYHDCVLLFLSRGANPELRNKEGDTAWDLTPERSDVWFALQLNRKLRLGVGNRAIRTEKIICRDVARGYENVPIPCVNGVDGEPCPEDYKYISENCETSTMNIDRNITHLQHCTCVDDCSSSNCLCGQLSIRCWYDKDGRLLQEFNKIEPPLIFECNQACSCWRNCKNRVVQSGIKVRLQLYRTAKMGWGVRALQTIPQGTFICEYVGELISDAEADVREDDSYLFDLDNKDGEVYCIDARYYGNISRFINHLCDPNIIPVRVFMLHQDLRFPRIAFFSSRDIRTGEELGFDYGDRFWDIKSKYFTCQCGSEKCKHSAEAIALEQSRLARLDPHPELLPELGSLPPVNT
In the case of B1, the “methylation of H1.0 peptide with tritium-labeled methyl groups (band at 4 kDa)” value [1] is reported as “capable of methylating H1.0 peptide”, the “peptides dimethylated at H1.0K180, % of all peptides” value ([2]; 10 U enzyme, 3.2 mM S-Adenosyl-L-Methionine, 37° C. 1 hour, spectral counts) is reported as 99.9% and the “estimated methylation efficiency for K180 dimethylation” value ([2]; other lysines (K166, K174, K175 or K177) not dimethylated) is reported as “about 99%”. The “H1.0K166me1K180me2, % of the total peptide in the reaction” value [3] was 1.27%, the “H1.0K174me1K180me3, % of the total peptide in the reaction” value [3] was 1.06% and the “H1.0K174me3K175me3K177me1K180me2, % of the total peptide in the reaction” value [3] was 0.35%. The “sites of methylation on full-length H1.0” value [4] was “methylates C-terminal lysine residues, including H1.0K180me2”.
